Experimental data published in PMC9158661.

Target: extracellular Cu/Zn superoxide dismutase from Onchocerca volvulus (OvEC-SOD) (Onchocerca volvulus)
Assay: SAXS; monodisperse solutions after affinity-tag cleavage, four concentrations 0.5-7.5 mg/ml; molecular mass from forward scattering with bovine serum albumin as reference; compared with the crystallographic dimer (CRYSOL, SREFLEX, GASBOR)

## extracellular Cu/Zn superoxide dismutase from Onchocerca volvulus (OvEC-SOD) (enzyme)
  stoichiometry N: 2
